According to paper PMC10165346 (Computational and Structural Biotechnology Journal, 2023):

B1: mouse TRIM56 RING domain (residues 2-88) (domain or fragment, UniProt Q80VI1 2-88, looked up)
chain: NSKVSSPTLLEALSSDFLACKICLEQLHTPKTLPCLHTYCQDCLAQLDIGGQVRCPECREIVPVPAEGVAAFKTNFFVNGLLDLVKA
B2: FLAG-tagged full-length mouse TRIM56, wild type (natural protein, UniProt Q80VI1 1-734, looked up)
chain: MNSKVSSPTLLEALSSDFLACKICLEQLHTPKTLPCLHTYCQDCLAQLDIGGQVRCPECREIVPVPAEGVAAFKTNFFVNGLLDLVKARAPGDVHSGKPTCALCPLVGGKSSGGPATARCLDCADDLCQACADGHRCSRQTHKHRVVDLVGYRAGWYDEEARERQASQCPQHPGEALCFLCQPCSQLLCKDCRLGPHIDHPCLPLAEAVRSRKPGLEELLAGVDSNLVELEATRVAEKEALALLREQAASVGTQVEEAAERILKSLLAQKQEVLGQLRALVEAAEEATRERLTKIERQEQVAKAAAAFARRVLSLGLEAEILSLEGAITQRLRQLQDAPWTSGPTRCVLPQLELHPGLEDKNCHLLRLIFEEPKQSPKDSGKGGAGTQGGDEAQGQGDDRTKIGKQGGAQPLTPKEGKDQNPQEDDGVFIERGNRPNKKKKCKGRGKSVSREPSPILRPNLEGSGLLPRPVFSWSFPTRMPGDKRSPRITGLCPYGPQEILVADEQNRVLKRFSLNGDYKGTVQVPEGCSPCSVAALQNAVAFSANAKLYLVSPDGEIQWRRSLSLTQSSHAVAAMPCGDRVAVSVAGHVEVYKKDGSLATRFIPGGKASRGQRALVFLTTSPQGNFVGSDWQQNSVVFCDGLGQVIWEYKGPGLHGCQPGSVSVDKKGYIFLTLREVNKVVILDPKGSLLGDFLTAYHGLEKPRVTTMVDGKYLVVSLSNGTIHVFRVRFPDS
B3: mouse TRIM56 coiled-coil domain (residues 215-303) (domain or fragment, UniProt Q80VI1 215-303, looked up)
chain: GLEELLAGVDSNLVELEATRVAEKEALALLREQAASVGTQVEEAAERILKSLLAQKQEVLGQLRALVEAAEEATRERLTKIERQEQVAK
B4: mouse TRIM56 coiled-coil domain mutant (L244A, V251A, V255A, I262A, L266A, Q269A, V273A, Q276A, L277A, L280A, R291A) (domain or fragment, UniProt Q80VI1 215-303, looked up)
chain: GLEELLAGVDSNLVELEATRVAEKEALALAREQAASAGTQAEEAAERALKSALAAKQEALGAARAAVEAAEEATREALTKIERQEQVAK

What was measured:
SEC-MALS = molecular target: the molecule itself; assay: SEC-MALS
cross-linking = molecular target: the molecule itself; assay: cross-linking

| Protein | stoichiometry N (SEC-MALS) | stoichiometry N (cross-linking) |
| --- | --- | --- |
| B1 | 2 |  |
| B2 |  | 4 |
| B3 | 4 |  |
| B4 | 2 |  |
